Source: paper PMC2943043 (Journal of neuroimmunology, 2010)

Biological target: Human recombinant voltage-dependent anion channel (human, UniProt P21796 1-283)
Experiment: radioligand binding

Sequence of Human recombinant voltage-dependent anion channel (P21796 whole entry): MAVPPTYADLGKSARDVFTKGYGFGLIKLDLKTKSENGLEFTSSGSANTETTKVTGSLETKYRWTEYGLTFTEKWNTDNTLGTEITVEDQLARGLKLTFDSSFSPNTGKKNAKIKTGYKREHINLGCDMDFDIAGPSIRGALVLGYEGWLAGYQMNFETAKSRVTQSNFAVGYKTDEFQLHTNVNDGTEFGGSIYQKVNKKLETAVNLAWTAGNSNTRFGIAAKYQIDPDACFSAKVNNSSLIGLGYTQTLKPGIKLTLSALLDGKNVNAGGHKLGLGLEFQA

binding result: binds
Binder: MIAAQLLAYYFTELKDDQVKKC [HK-I peptide Met1-Lys21 (P2)]
